Assay results reported in patent publication US20190106460A1 (published 2019).
Values joined by “and” are separate entries in the source; they are usually repeats but may differ in a detail not shown here. Identical values can stand only once. Starred links: 1 amine or outer side, 2 acyl side, 3 side chain; linkers in the order of their positions; H or OH if unused. Non-standard residues stand in square brackets, D forms with d. *: point of attachment. Tyr(Me) = O-methyl-L-tyrosine, COc1ccc(C[C@H](N[*:1])C(=O)[*:2])cc1; Phe(4-NO2) = N[C@@H](Cc1ccc([N+](=O)[O-])cc1)C(=O)O; Benzenesulfonyl(4-OMe) = COc1ccc(S(=O)(=O)*)cc1; E(Me) = COC(=O)CC[C@H](N[*:1])C(=O)[*:2]; Phe(3-Cl) = N[C@@H](Cc1cccc(Cl)c1)C(=O)O; Phe(4-Br) = N[C@@H](Cc1ccc(Br)cc1)C(=O)O; Phe(3-F) = N[C@@H](Cc1cccc(F)c1)C(=O)O; Phe(4-F) = N[C@@H](Cc1ccc(F)cc1)C(=O)O; 1Nal = N[C@@H](Cc1cccc2ccccc12)C(=O)O; Suc = O=C(CCC(=O)[*:2])[*:1]; Tos = Cc1ccc(S(=O)(=O)*)cc1; βE = a beta form of Glu

B1: Ts-dEGF(3Cl)WE(Me)-NH2 (peptide)
peptide: Tos-[dD]EG[Phe(3-Cl)]W[E(Me)]-NH2
notes: also called UBP033
B2: Ts-dEGF(3Cl)WE-NH2 (peptide)
peptide: Tos-[dD]EG[Phe(3-Cl)]WE-NH2
SMILES: Cc1ccc(S(=O)(=O)N[C@H](CC(=O)O)C(=O)N[C@@H](CCC(=O)O)C(=O)NCC(=O)N[C@@H](Cc2cccc(Cl)c2)C(=O)N[C@@H](Cc2c[nH]c3ccccc23)C(=O)N[C@@H](CCC(=O)O)C(N)=O)cc1
notes: also called UBP034
B3: Ts-dEGF(3F)WE(Me)-NH2 (peptide)
peptide: Tos-[dD]EG[Phe(3-F)]W[E(Me)]-NH2
notes: also called UBP032
B4: 4-(MeO)-PhSO2-dEGF(3F)WE-NH2 (peptide)
peptide: {Benzenesulfonyl(4-OMe)}-[dD]EG[Phe(3-F)]WE-NH2
SMILES: COc1ccc(S(=O)(=O)N[C@H](CC(=O)O)C(=O)N[C@@H](CCC(=O)O)C(=O)NCC(=O)N[C@@H](Cc2cccc(F)c2)C(=O)N[C@@H](Cc2c[nH]c3ccccc23)C(=O)N[C@@H](CCC(=O)O)C(N)=O)cc1
notes: also called UBP022
B5: Ts-DEGF(3F)WE-NH2 (peptide)
peptide: Tos-DEG[Phe(3-F)]WE-NH2
SMILES: Cc1ccc(S(=O)(=O)N[C@@H](CC(=O)O)C(=O)N[C@@H](CCC(=O)O)C(=O)NCC(=O)N[C@@H](Cc2cccc(F)c2)C(=O)N[C@@H](Cc2c[nH]c3ccccc23)C(=O)N[C@@H](CCC(=O)O)C(N)=O)cc1
notes: also called UBP024
B6: Suc-EGFF-NH2 (peptide)
peptide: Suc-EGFF-NH2
SMILES: NC(=O)[C@H](Cc1ccccc1)NC(=O)[C@H](Cc1ccccc1)NC(=O)CNC(=O)[C@H](CCC(=O)O)NC(=O)CCC(=O)O
B7: Suc-EG-F(3F)-F(3F)-NH2 (peptide)
peptide: Suc-EG[Phe(3-F)][Phe(3-F)]-NH2
SMILES: NC(=O)[C@H](Cc1cccc(F)c1)NC(=O)[C@H](Cc1cccc(F)c1)NC(=O)CNC(=O)[C@H](CCC(=O)O)NC(=O)CCC(=O)O
B8: Suc-QGYF-NH2 (peptide)
peptide: Suc-QGYF-NH2
SMILES: NC(=O)CC[C@H](NC(=O)CCC(=O)O)C(=O)NCC(=O)N[C@@H](Cc1ccc(O)cc1)C(=O)N[C@@H](Cc1ccccc1)C(N)=O
B9: Suc-EGY-F(4NO2)-NH2 (peptide)
peptide: Suc-EGY[Phe(4-NO2)]-NH2
SMILES: NC(=O)[C@H](Cc1ccc([N+](=O)[O-])cc1)NC(=O)[C@H](Cc1ccc(O)cc1)NC(=O)CNC(=O)[C@H](CCC(=O)O)NC(=O)CCC(=O)O
B10: Suc-EGYF-NH2 (peptide)
peptide: Suc-EGYF-NH2
B11: Suc-EGY-F(3F)-NH2 (peptide)
peptide: Suc-EGY[Phe(3-F)]-NH2
SMILES: NC(=O)[C@H](Cc1cccc(F)c1)NC(=O)[C@H](Cc1ccc(O)cc1)NC(=O)CNC(=O)[C@H](CCC(=O)O)NC(=O)CCC(=O)O
B12: Suc-EGY-F(4F)-NH2 (peptide)
peptide: Suc-EGY[Phe(4-F)]-NH2
SMILES: NC(=O)[C@H](Cc1ccc(F)cc1)NC(=O)[C@H](Cc1ccc(O)cc1)NC(=O)CNC(=O)[C@H](CCC(=O)O)NC(=O)CCC(=O)O
B13: Suc-EG-F(4Br)-F-NH2 (peptide)
peptide: Suc-EG[Phe(4-Br)]F-NH2
SMILES: NC(=O)[C@H](Cc1ccccc1)NC(=O)[C@H](Cc1ccc(Br)cc1)NC(=O)CNC(=O)[C@H](CCC(=O)O)NC(=O)CCC(=O)O
B14: Suc-EG-F(4NO2)-F(4NO2)-NH2 (peptide)
peptide: Suc-EG[Phe(4-NO2)][Phe(4-NO2)]-NH2
SMILES: NC(=O)[C@H](Cc1ccc([N+](=O)[O-])cc1)NC(=O)[C@H](Cc1ccc([N+](=O)[O-])cc1)NC(=O)CNC(=O)[C@H](CCC(=O)O)NC(=O)CCC(=O)O
B15: Suc-βE-GYFE-NH2 (peptide)
peptide: Suc-[βE]GYFE-NH2
modifications: not fully specified; printed as Suc-βE-GYFE-NH2
B16: Suc-EG-F(4Br)-F(3F)-NH2 (peptide)
peptide: Suc-EG[Phe(4-Br)][Phe(3-F)]-NH2
SMILES: NC(=O)[C@H](Cc1cccc(F)c1)NC(=O)[C@H](Cc1ccc(Br)cc1)NC(=O)CNC(=O)[C@H](CCC(=O)O)NC(=O)CCC(=O)O
B17: Suc-EG-1Nal-Y(Me)-E-NH2 (peptide)
peptide: Suc-EG[1Nal][Tyr(Me)]E-NH2
B18: Phth-EGFFE-NH2 (peptide)
peptide: Phth-EGFFE-NH2
B19: Suc-EGFFE-NH2 (peptide)
peptide: Suc-EGFFE-NH2
SMILES: NC(=O)[C@H](CCC(=O)O)NC(=O)[C@H](Cc1ccccc1)NC(=O)[C@H](Cc1ccccc1)NC(=O)CNC(=O)[C@H](CCC(=O)O)NC(=O)CCC(=O)O
notes: also called UBP002; succ-EGFFE

What follows are binders tested against Skp2 (UniProt Q13309 1-424, limits assumed) (assay: cell-based or functional assay).
Chain of Skp2 (Q13309 whole entry): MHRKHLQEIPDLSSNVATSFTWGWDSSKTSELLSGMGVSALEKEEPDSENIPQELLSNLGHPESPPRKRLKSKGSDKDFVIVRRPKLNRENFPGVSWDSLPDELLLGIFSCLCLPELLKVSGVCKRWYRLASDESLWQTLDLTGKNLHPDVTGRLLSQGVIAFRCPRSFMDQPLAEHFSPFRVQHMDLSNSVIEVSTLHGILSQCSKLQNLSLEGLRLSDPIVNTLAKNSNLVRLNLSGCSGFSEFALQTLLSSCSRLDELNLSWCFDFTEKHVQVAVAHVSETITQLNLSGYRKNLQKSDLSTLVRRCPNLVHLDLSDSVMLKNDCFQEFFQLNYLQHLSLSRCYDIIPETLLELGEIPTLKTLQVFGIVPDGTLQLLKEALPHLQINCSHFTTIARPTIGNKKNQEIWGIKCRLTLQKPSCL

Binder | % Inhibition Skp2 @ 10 µM | % Inhibition Skp2 @ (100 µM)
B1 | 0% | 10%
B2 | 0% | 0%
B3 | 0% | 0%
B4 | 7% | 12%
B5 | 0% | 7%

Each binder was assayed against Fbw7 (UniProt Q969H0 263-707, limits assumed) (assay: cell-based or functional assay).
Chain of Fbw7 (Q969H0 263-707 limits assumed): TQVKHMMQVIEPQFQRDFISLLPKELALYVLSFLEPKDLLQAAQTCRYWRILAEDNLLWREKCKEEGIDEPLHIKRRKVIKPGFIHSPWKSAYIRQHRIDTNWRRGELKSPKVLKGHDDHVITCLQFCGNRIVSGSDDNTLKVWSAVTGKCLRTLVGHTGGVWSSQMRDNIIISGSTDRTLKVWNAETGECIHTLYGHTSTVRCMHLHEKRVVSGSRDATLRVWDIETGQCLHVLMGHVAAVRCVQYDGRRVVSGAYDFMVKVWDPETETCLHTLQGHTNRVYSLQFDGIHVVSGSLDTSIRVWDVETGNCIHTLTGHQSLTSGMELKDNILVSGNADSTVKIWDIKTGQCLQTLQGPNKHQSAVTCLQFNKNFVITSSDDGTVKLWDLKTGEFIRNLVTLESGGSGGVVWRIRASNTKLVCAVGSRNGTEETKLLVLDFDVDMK

Binder | % Inhibition Fbw7 @ 10 µM | % Inhibition Fbw7 @ (100 µM)
B1 | 7% | 11%
B2 | 8% | 6%
B3 | 4% | 10%
B4 | 0% | 18%
B5 | 0% | 8%

These binders were tested against T1, βTrCP (tag cleaved and complexed with Skp1) (UniProt Q9Y297 175-605; P63208 1-163) (assay: FP competition vs fluorescein-IκB peptide).
T1 construct: Protein of the FP assay (0.035 µM); also called Beta Transducin repeat-containing protein; βTrCP/Skp1

Binder | IC50
B6 | 46000 nM
B7 | 44000 nM
B8 | 49000 nM
B9 | 91000 nM
B10 | 31000 nM
B11 | 91000 nM
B12 | 71000 nM
B13 | 38000 nM and 39000 nM
B14 | 78000 nM
B15 | 30000 nM
B16 | 81000 nM
B17 | 5400 nM

Biological target: T1, βTrCP (tag cleaved and complexed with …)
Assay: FP competition vs fluorescein-IκB peptide
Remark: another data set of the same source

Binder | IC50
B1 | 17 nM
B2 | 10 nM
B3 | 22 nM
B4 | 17 nM
B5 | 18 nM

Biological target: T1, βTrCP (tag cleaved and complexed with …)
Assay: FP competition vs fluorescein-IκB peptide
Remark: another data set of the same source

Binder | IC50
B1 | 17 nM
B2 | 10 nM
B3 | 22 nM
B4 | 17 nM
B5 | 18 nM

These binders were tested against T2, HisβTrCP/Skp1 and HisβTrCP/GSTSkp1 (immobilised on NTA Biacore chip) (UniProt Q9Y297 175-605; P63208 1-163) (assay: SPR, Biacore T200, βTrCP/Skp1 immobilised).
T2 construct: SPR: KD values from both surfaces (with or without the GST moiety) were averaged to give the apparent KD; also called βTrCP surfaces
Excerpt: (§1) As βTrCP was His tagged, an NTA sensor chip was used. This sensor chip has a dextran surface matrix with immobilized nitrilotriacetic acid (NTA) which provides a means of capturing polyHis-tagged proteins through Nickel chelation. It was hoped that addition of Ni⁺ would orient the protein in a specific (and hopefully active) manner as it is covalently immobilised via amine coupling. Addition of EDC:NHS (N-ethyl-N′-(3-[…])-carbodiimide:N-hydroxysuccinimide) converts carboxyl groups on the dextran sensor chip surface to succinamide esters which readily form covalent bonds with primary amines. Each chip contains four flow cells (each a separate surface) which means that compounds/peptides can be passed over different forms of βTrCP and a reference surface simultaneously. If binding to βTrCP is occurring, responses should be the same (accounting for differences in density of surface etc) on each surface.
Small molecule/peptide samples to be assayed for binding to βTrCP surfaces, were provided as 10 mM stocks in 100% DMSO. All samples were tested in running buffer composed of 10 mM HEPES pH 7.4, 150 mM NaCl, 50 μM EDTA, 0.005% p20, and 1% DMSO. Serial dilutions were made using running buffer. Samples were tested over varying concentrations up to a maximum of 100 μM. Two methods of measuring the SPR response were employed: single cycle kinetics which measures the response across different concentrations of sample within a single cycle (no regeneration of surface) and a method that measures the response at a given concentration in each cycle and includes a regeneration wash after each sample injection. The regeneration solution used was the same as running buffer, but included 500 mM NaCl. Data was fitted using Biacore T200 evaluation software. KD values calculated from binding curves from both surfaces (with or without the GST moiety) were averaged to produce apparent KD's for each sample tested.

T2 sequence (Q9Y297 175-605, chain 1 of 2): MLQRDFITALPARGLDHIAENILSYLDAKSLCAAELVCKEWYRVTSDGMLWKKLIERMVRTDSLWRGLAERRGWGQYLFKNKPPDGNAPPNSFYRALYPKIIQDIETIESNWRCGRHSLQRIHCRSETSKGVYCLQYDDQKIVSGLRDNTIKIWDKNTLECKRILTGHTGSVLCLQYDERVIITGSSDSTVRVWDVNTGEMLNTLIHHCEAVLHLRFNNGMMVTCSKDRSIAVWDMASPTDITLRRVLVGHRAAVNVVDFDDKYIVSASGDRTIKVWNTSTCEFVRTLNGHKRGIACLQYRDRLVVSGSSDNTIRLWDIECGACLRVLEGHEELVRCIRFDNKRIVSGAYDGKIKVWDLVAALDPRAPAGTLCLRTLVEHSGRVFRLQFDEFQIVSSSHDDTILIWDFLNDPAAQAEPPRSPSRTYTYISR
T2 sequence (P63208 whole entry, chain 2 of 2): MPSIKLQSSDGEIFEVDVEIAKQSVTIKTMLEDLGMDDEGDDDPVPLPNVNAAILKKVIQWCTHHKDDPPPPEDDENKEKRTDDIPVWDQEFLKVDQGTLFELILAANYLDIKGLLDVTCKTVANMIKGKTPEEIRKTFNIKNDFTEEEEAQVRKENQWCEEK

Binder | Kd
B1 | 47 nM
B2 | 154 nM
B3 | 170 nM
B4 | 48 nM
B5 | 19 nM

The binders below were run against T3, βTrCP (tag cleaved and complexed with Skp1) (UniProt Q9Y297 175-605; P63208 1-163) (assay: FP competition, 10 nM fluorescein-IκB peptide on βTrCP/Skp1).
T3 construct: Protein of the fluorescence polarisation assay, 0.035 µM; also called Beta Transducin repeat-containing protein; βTrCP/Skp1
Description: Binding of the compounds to βTrCP was assessed using a fluorescence polarisation (FP) binding assay. The FP assay is an in vitro binding assay using a fluorescein-tagged IkB peptide at 10 nM to mimic substrate binding to βTrCP, and was performed as described above.
Four sequences were selected for re-synthesis and testing in the FP assay, which was performed as described above along with 4 negative controls.

Binder | IC50
B18 | 10900 nM
B19 | 3180 nM

What follows are binders tested against T2, HisβTrCP/Skp1 and HisβTrCP/GSTSkp1 … (assay: SPR (Biacore T200), single cycle run up to 1e-6 M, steady-state fit of the run shown; Rmax 2.093 RU, Chi² 0.0110 RU² [A]).
Excerpt: as §1
(§2) Small molecule/peptide samples to be assayed for binding to βTrCP surfaces, were provided as 10 mM stocks in 100% DMSO. All samples were tested in running buffer composed of 10 mM HEPES pH 7.4, 150 mM NaCl, 50 μM EDTA, 0.005% p20, and 1% DMSO. Serial dilutions were made using running buffer. […] KD values calculated from binding curves from both surfaces (with or without the GST moiety) were averaged to produce apparent KD's for each sample tested.

Binder | Kd
B1 | 21.6 nM

The binders below were run against T2, HisβTrCP/Skp1 and HisβTrCP/GSTSkp1 … (assay: SPR (Biacore T200), single cycle run up to 1e-6 M, steady-state fit of the run shown; Rmax 4.264 RU, Chi² 0.00601 RU² [B]).
Excerpt: as §1, §2

Binder | Kd
B2 | 80.8 nM

These binders were tested against T2, HisβTrCP/Skp1 and HisβTrCP/GSTSkp1 … (assay: SPR (Biacore T200), single cycle run up to 1e-6 M, steady-state fit of the run shown; Rmax 3.459 RU, Chi² 0.00452 RU² [C]).
Excerpt: as §1, §2

Binder | Kd
B4 | 49.8 nM

These binders were tested against T2, HisβTrCP/Skp1 and HisβTrCP/GSTSkp1 … (assay: SPR (Biacore T200), single cycle run up to 1e-6 M, steady-state fit of the run shown; Rmax 1.318 RU, Chi² 0.00773 RU² [D]).
Excerpt: as §1, §2

Binder | Kd
B5 | 40 nM

What follows are binders tested against T2, HisβTrCP/Skp1 and HisβTrCP/GSTSkp1 … (assay: SPR (Biacore T200), single cycle run up to 1e-6 M, steady-state fit of the run shown; Rmax 2.156 RU, Chi² 0.00730 RU² [E]).
Excerpt: as §1, §2

Binder | Kd
B3 | 108 nM
